The values below come from a protein production outcome set (Wang et al. 2014).

The data set can be described thus: label from the status in PepcDB records.

On to “MAEICLITGTPGSGKTLKMVSMMANDEMFKPDENGIRRKVFTNIKGLKIPHTYIETDAKKLPKSTDEQLSAHDMYEWIKKPENIGSIVIVDEAQDVWPARSAGSKIPENVQWLNTHRHQGIDIFVLTQGPKLLDQNLRTLVRKHYHIASNKMGMRTLLEWKICADDPVKMASSAFSSIYTLDKKVYDLYESAEVHT”, for which the protein production entry is recorded as “not failed”.
For “MAEIKHYQFNVVMTCSGCSGAVNKVLTKLEPDVSKIDISLEKQLVDVYTTLPYDFILEKIKKTGKEVRSGKQLAREVILAVHGMTCSACTNTINTQLRALKGVTKCDISLVTNECQVTYDNEVTADSIKEIIEDCGFDCEILRDS”, the protein production entry is reported as “not failed”.
On to “MAEIQFSKGVAETVVPEVRLSKSKNGQSGMAKFYFLEPTILAKESTDDITGMYLIDDEGEIITREVKGKFINGRPTAIEATVILNSQPEWDRFMRFMERYGAENGLGFSKSELEHHHHHH”, for which the protein production result is given as “not failed”.
The result for “MAEKISVKTADTNADEIDLGRLLGTLLDNRWLIIGVTAIFLIFGILYATLATPIYKADALVQVEKNSSNKLINDITSMLPDAKPESAAEVELITSRMIIGKTVNDLALDINVQQNYFPFFGKGIARLTGATKGVLAVSRLEVPDSWKDEPIILTVTDNKNYSISAGDAVRFEGQVGRLERHDGMTLLISDIAADEGTTFSIKKLNQLTAINNILKTLTVADRGKDTGVLALSLEGEDPILTNKILNSISENYLQQNVERKSEESGRSLEFLKEQLPNVRSILDEADNKLNIFRQKNESVDLSLEAKSVLETMVALEAQLNELTFKEAEISKLYTKEHPAYRALLEKRKTLEEEKEKINKRVGAMPKTQQEIIRLTRDVKAGQEVYMQLLNKQQELSINKASTVGNVRIIDSAVVQLRPVKPEKVFIVLLSIILGGLLSVSFVLIRTILHKGIESPEQLAELGISVYASVPLSAWQQKKDRALLGKGKRGNTRSTELLAVGNPADLAIEAIRSLRTSLHFAMMEAKNNVLMISGASPAIGKTFVSANLGAVIAQSGQRVLIVDCDMRKGYAHELMGCQGTDGLSDILSGQITTDKSIRKTAVENMDFIPRGQIPPNPSELLMHSRFSQFIDWATKNYDIVLLDTPPILAVTDAAVISRHAGTSLLVARFEVNTLKEIEVSIRRFEQNGTEIKGVILNAIVKRAASYYSYGNYDYYSYEYKSDK” reads “failed”; that for “MAEKKWFDKVLSKWQYEPIQVFMRHLQSAEMDLSAIAVAYYLILTAFPLIVIAANIFPYLNIDIADLLRLMKQNLPKDIFRPASAIVENIFSKPSGSVLGVATLTGLWTMSRSLTSLQKAINKAYGASQHRDFFIGHLVGLLTSLIILFLLAFALIFSIFSKAAIQVLDKHYHLSDNITTIFLLLIQPITVLIIFVGLMLLYFLLPNVKIKKIRYILPGTLFTSFVMTFLSNLVGNYVVYNVERMVDIKMFGSVMIFIIMLWFIFLARILILGAIFNATYQEMSLGKLEGRSGDMIAILKKTLGNDSDLSPSQSIEDSHTD”, “failed”; that for “MAELAANDIDSALRWLERAIDHDPEYSSAYAALGDIYQRTNDPVEADYCLRMALRCSPDSSEILHKLARNCVTLGNRSEALALLREAKDRHSGSVDFLSQLALIYDDLDETDLAICTWEEVIALNPLDASAHNNLGLQWHYGKGDVDKALDCFMRALQLNPCLTEARFNLYQAKADAGKVDEALAGFESMLAEPFREEVMFHRSIMLLKNRRFGEGWREYHLRWRYRGTQSRSFPFPNWDGQPCTGKTLLVYGEQGLGDEIMFASCLRDLHEKTGAKIVLECNTRLESLFRRSFPGITVIGRSSAQTSADGLASGATIDFQTAIGDLPGMFRAEEAAFPNHRGYLVADPKRVTFWKDRLAALGEGPKIGISWRGGQGKTRREARSIPLQEWHPILAAEGRHFVSLQYTDCRQELQALEEQHGIVIHHWQEAIDDYDETAALVMALDKVITVCTSIVHLTGALGRPAWVLVPRVPEWRYLASGETMPWYPSVRLFRQPRAGDWAPVLRDIAWKLGTVARRVDHDLG”, “failed”.
With “MAELEAVADDLDALIDDLDYLPGHFHLEMQLNFEPRSPAPQRARDLKLQREGLRQELQLAAAPQRPAVRHLLGAFAFYLEELDEARECFLEVAHEHPGNLNAWANLAHVYGRLGQEEEEEACAARLADLMGLAEEPEAAGDPQLRAARCLAEQGYAHGFDVGCASPEERARGLAAGIALYDKALGYGQQIPMEEKRGWYFTMATLYIRLDGIFLELGSEEQKRLPAFNRTLALLRQVLKSEDPRHRALAWCYLGMLLERKDTFSTTPMGVHDCGYSGTDPLDCFGKAIEIAKNQPPILNRLAKIFYFLGKQDMAIGTCNMALDVLRDPELNWQAYCTRAKIHIRAYLHDLKRAKMGLGGMPDRNHLACAKADLEEVVRVCPGFKAYLDIGQVYYYMGVDAVQELLAVDEAALNQALVFLAKAGESELGATLPELQLLRGKCLRIKGEDANAAACFKRAVELDDAGSSHTDGFGCLLEALLAQWSQAQLSDGELGREVDAWLRRAQDKYPAARLRQELQRVWRGHTDEVLGLARALVAQGRPALVRLLFETMEREGEGASAPRDRRAVSF”, the protein production result is “failed”.
As for “MAELENPSVMSKLIAFLSSLLERVAESNDLTRRVATQSQRVSVFHGLSRPTITIQSYLERIFKYANCSPSCFVVAYVYLDRFTHRQPSLPINSFNVHRLLITSVMVAAKFLDDLYYNNAYYAKVGGISTKEMNFLELDFLFGLGFELNVTPNTFNAYFSYLQKEMTLLQPLSLVVVPSSRSLITFNDDEASHQKQQQQQLAV”, the protein production result is reported as “failed”.
On to “MAELGITLRTVQSLGPGETIWDAGHRAAVRGFGVRRQRGAPVYVLKYRAHGRQRFFTIGPHGSPWTPERARREAKRLLGLVADGKDPADDRAEAALQAADTLLKIADQYLKHAKQKQRPRTYSEIERYLLTAWKPLHPVSVFLIKRRHVAIRIAEIATGQGAVTAARARAALSAMFNWAIREGLDIPANPVLGTNRPAAPRSRDRVLADGELAEIWAALGDDDYGRIVKLLLLTAQRREEVGSMRRTELDLENSVWKIPGNRTKNHREHKVPLTKAAIALIPLPRGNREYVFGDGPRREGDNHRGYSGWSKSKAGLDARLLAVRQKALDAGVAAEPLPDWHLHDLRRTAATVMADRLGVFPHIVEAVLNHVSGHRAGVAGVYNLARYETDMRAALNAWADNIKDIVAS”, for which the protein production entry is given as “failed”.
In the case of “MAENGESSGPPRPSRGPAAAQGSAAAPAEPKIIKVTVKTPKEKEEFAVPENSSVQQFKEAISKRFKSQTDQLVLIFAGKILKDQDTLIQHGIHDGLTVHLVIKSQNRPQGQSTQPSNAAGT”, the protein production entry is “failed”.
Take “MAEQKNHNNELNVEDALTQSEAFLVKNKKAIIGAVVAVIVIVAGAILYKNFYAEPREEKAQAALFKSEQYFEQSAYEQALNGDSIGSIGFLKVADQFSGTKAANLAKAYAGICYQNLGKYEEAIKALDGFSGDDQMVAPAIQGAIGNCYAQLGQLDKATSALLKAADHADNSTLSPIFLLQAGEILMKQGKNEEAVKAFTKIKDKYFQSYQAMDIDKYIEQAKLLKK”: the protein production result was “failed”.
As to “MAESGVSVGSESLQLYEAQFFGFTPETCTLRVRDAFRDSLNHILVAVESVFVKRLCPGRDPPAELRLTARESTQKLRQFLQERFEIMFQRMKGMLIDRMLSIPQNVLLPEDQMHQKYPEGKEELTKLQESIAKLLQAYEAEVCSKQALLAELEEQKETQKQLDEVLRWIEELRVSWRREGMGNVQDSVRHMIETVGQLQDVVGKINKQNSALDEV”, the protein production result is “failed”.
For “MAETAAGVGRFKTNYAVERKIEPFYKGGKAQLDQTGQHLFCVCGTRVNILEVASGAVLRSLEQEDQEDITAFDLSPDNEVLVTASRALLLAQWAWQEGSVTRLSKAIHTAPVATMAFDPTSTLLATGGCDGAVRVWDIVRHYGTHHFRGSPGVVHLVAFHPDPTRLLLFSSATDAAIRVWSLQDRSCLAVLTAHYSAVTSLAFSADGHTMLSSGRDKICIIWDLQSCQATRTVPVFESVEAAVLLPEEPVSQLGVKSPGLYFLTAGDQGTLRVWEAASGQCVYTQAQPPGPGQELTHCTLAHTAGVVLTATADHNLLLYEARSLRLQKQFAGYSEEVLDVRFLGPEDSHVVVASNSPCLKVFELQTSACQILHGHTDIVLALDVFRKGWLFASCAKDQSVRIWRMNKAGQVMCVAQGSGHTHSVGTVCCSRLKESFLVTGSQDCTVKLWPLPKALLSKNTAPDNGPILLQAQTTQRCHDKDINSVAIAPNDKLLATGSQDRTAKLWALPQCQLLGVFSGHRRGLWCVQFSPMDQVLATASADGTIKLWALQDFSCLKTFEGHDASVLKVAFVSRGTQLLSSGSDGLVKLWTIKNNECVRTLDAHEDKVWGLHCSRLDDHALTGASDSRVILWKDVTEAEQAEEQARQEEQVVRQQELDNLLHEKRYLRALGLAISLDRPHTVLTVIQAIRRDPEACEKLEATMLRLRRDQKEALLRFCVTWNTNSRHCHEAQAVLGVLLRREAPEELLAYEGVRAALEALLPYTERHFQRLSRTLQAAAFLDFLWHNMKLPVPAAAPTPWETHKGALP” the value was “failed”; for “MAETSIEWTDVTWNPVAGCTVLTAGCTNCYAMRMAARLEAMGVEKYAGLTRKSGGRAKWTGRIFLDRKALSIPASWSKPRRVFVNSMSDLFHSDVPTDFISDVWKVMAQTPRHTYQILTKRPDRMVEIVPGLAKLRNVWLGTSVEDARVIYRIDKLRQVPAAVRFVSFEPLIGSVSGAGLRNIHWAIVGGESGPKARSMDPAWVDEIESMCRDQGAAFFFKQWGGKNKKAAGRTLNGRLYDEMPAPSMP”, “failed”.
On to “MAEVLVYVDHVDGAVRKPTLELLTLARRIGEPVALALGSGAENTAAALAEHGAGKVLTHDAAEYADYLVVPKVDALQAAYEAVSPAAVLIPSSAEGKEIAARLAVRIGSGIITDAVDLEAGDEGPVATQSAFAASFTTKSRVSKGTPVITVKPNSAPVEAAPAAGAVEALSVSFSDKATGTKVTGRTPRESTGRPELTEAAIVVSGGRGVNGAENFAIIEALADSLGAAVGASRAAVDAGWYPHSNQVGQTGKAVSPQLYIASGISGAIQHRAGMQTSKTIVAINKDAEAPIFDLVDYGVVGDLFDVVPQLTDEVKTRKG”, for which the protein production result is reported as “failed”.
For “MAEVTGVRALTGAALDAALEDVARLRIAVFRAWPYLYDGDLDYERDYLQAYRNSDRAIVVGAFDGDRLIGASTGMPLADHADDFAAAFADSGLALDQVFYCAESVLLPDYRGHGVGHRFFDLREGHARALGFAKCAFCGVQRPADHPLKPDSYRPLDAFWRARGYEKLPGAVAHFSWKDLDQENETDKPLQFWIRDL” the value was “failed”; for “MAFTESDVYNNTAFFEQYMKRRYRENSPNESIEKPVFFQLIGHVQGKQILDLGCGDAKFGAELLEKGCYSYTGIEGSELMYEKAKKQLENKNGSVHFLNLKDYTYPSSTFDLVTSRLALHYIEHLDTIFQNVFQTLKTNGTFTFSVQHPVITSSFESLQTSGKRTIWLVDDYFKLGKRVEPWIDQEVIKYHRTTEEYFTLLQQAGFTITSLKEATPNPTYFQDEEEYKRRLRIPLFLLFSCTK”, “failed”.
